# Columns and labels:
# [1] = target: T1, Recombinant mouse TSG-6 (R&D Biosystems, catalog #2326-TS) (mouse, UniProt O08859 18-275); assay: hybridoma raised against mouse TSG-6; clone selection by ELISA
# T1 construct: Bought protein, used KLH-coupled as the immunogen; also called mTSG-6
# Method: (§1) Mouse antibodies directed against mouse TSG-6 protein (mTSG-6) were generated using conventional mouse monoclonal antibody techniques. Briefly, mice (strain SJL/J) were inoculated with KLH-coupled recombinant mouse TSG-6 (R&D Biosystems, catalog #2326-TS). After boosting, antibody titers were determined by ELISA, using a non-relevant His6-tagged protein as a control. Mice selected for fusion were sacrificed and hybridoma fusion was performed using the P3X63Ag8.653 murine myeloma cell line as a fusion partner. Clones were isolated by limiting dilution and selected by ELISA of hybridoma supernatants. Recombinant human TSG-6 (R&D Biosystems, catalog #2104-TS) was used as a substrate for ELISA assays thus facilitating the selection of human- and mouse-cross reactive clones (the two proteins are 92% identical at the amino acid level). Hybridoma mRNA was transcribed to cDNA and amplified by 5′-rapid amplification of cDNA ends (RACE). PCR products were cloned into an appropriate sequencing vector and sequenced by the dideoxy Sanger method. Multiple copies were sequenced to verify the clonality of each clone. Translated protein sequences were entered into the NCBI IgBLAST search tool (Ye, J., et al., 2013, Nucleic Acids Res. 41, W34-40) to identify CDRs.
# [2] = target: T2, Recombinant human TSG-6 (R&D Biosystems, catalog #2104-TS) (human, UniProt P98066 18-277); assay: ELISA of hybridoma supernatants on recombinant human TSG-6
# T2 construct: Bought protein; also called hTSG-6; Tumor necrosis factor-inducible gene 6 protein
# T2 sequence (P98066 18-277 limits assumed): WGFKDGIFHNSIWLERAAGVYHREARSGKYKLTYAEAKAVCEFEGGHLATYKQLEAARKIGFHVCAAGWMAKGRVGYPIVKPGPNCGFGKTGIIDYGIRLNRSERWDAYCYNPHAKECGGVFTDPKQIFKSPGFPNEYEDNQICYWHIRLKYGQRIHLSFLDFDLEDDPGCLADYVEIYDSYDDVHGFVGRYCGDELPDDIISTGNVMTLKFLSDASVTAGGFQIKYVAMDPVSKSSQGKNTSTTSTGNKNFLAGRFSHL
# Method: as §1
# T1 sequence (O08859 18-275 limits assumed): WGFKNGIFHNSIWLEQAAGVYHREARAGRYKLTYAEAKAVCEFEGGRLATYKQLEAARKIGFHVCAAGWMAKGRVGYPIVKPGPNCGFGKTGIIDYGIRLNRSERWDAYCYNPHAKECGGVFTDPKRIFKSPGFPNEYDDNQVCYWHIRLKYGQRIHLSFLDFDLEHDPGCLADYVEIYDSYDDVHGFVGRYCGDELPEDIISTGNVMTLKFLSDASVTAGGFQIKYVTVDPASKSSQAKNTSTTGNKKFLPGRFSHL
Binder,binding result [1],binding result [2]
"3C6 (antibody, V domains shown, Entries as printed include a leader and part of the constant region; also called anti-TSG-6 antibody 3C6) VH: EVQLQQSGPELVKPGASVKIPCKASGYTFTDYNMDWVKQSHGESLEWIGDIYPNNGGTIYNQKFKDKATLTVDKSSSTAYMELRSLTSEDNAVYYCARKTGTGFDYWGQGTTLTVSS VL: QIVLSQSPAILSASPGEKVTMTCRARSSVIYMHWYQQKPGSSPKPWIYATFNLASGVPARFSGSGSGTSYSLTISRVEAEDAATYYCQQWSSNPPTFGSGTKLEIKR",binds,binds
"5D9 (antibody, V domains shown, Entries as printed include a leader and part of the constant region) VH: QVQLQQSGAELARPGASVKLSCKASDDTFINYGINWVKQRTGQGLEWIGETFPSNGNTFYNEKFKGKATLTADRSSSTTYMELRSLTSEDAAVYFCARHSNLPYFDHWGQGSTLTVSS VL: DIVMTQSPSSLSVSAGEKVTMSCKSSQSLLNSGNQKNYLAWYQQKPGQPPKLLIYGASTRESGVPERFTGSGSGTDFTLTISSVQAEDLAVYYCQNDHSYPFTFGGGTNLEIKR",binds,binds
"4F1 (antibody, V domains shown, Entries as printed include a leader and part of the constant region) VH: EVKLVESGGGLVQPGGSLSLSCAASGFTFTDYYMSWVRQPPGKALEWLGFIRHKAKGYTAEYSASVKGRFTISRDNSQSILYLQMNALRAEDSATYYCARLYYYGSPHWYFDVWGTGTTVTVSS VL: QIVLTQSPAIMSASPGEKVTMTCSASSSVSYMHWYQQKSGTSPKRWIYDTSKLASGVPARFSGSGSGTSYSLTISSMEAEDAATYYCQQWSSNPPTFGSGTELEIKR",binds,binds
"3E1 (antibody, V domains shown, Entries as printed include a leader and part of the constant region) VH: QVQLQQSGAELAKPGASVRLSCQASGYTFTSYWMHWVKQRPRQGLEWIGYIIPSSGYTKCHQKFKDKATLTADKSSSTAYMQLSSLTYEDSAVYYCARSTSGYPYYFDSWGQGTTLTVSS VL: ENVLTQSPAIMSASPGERVTMTCSATSSVSFMHWYQQKSSTSPKLWIYDTSKLASGVPGRFSGSGSGNSYSLTISSMEAEDVATYYCFQGSWYPLTFGAGTKLELKR",binds,binds
"3E4 (antibody, V domains shown, Entries as printed include a leader and part of the constant region) VH: QVQLQQPGAELVKPGASVKLSCKASGYTFTSQWMHWVKQRPGQGLEWIGMIHPNSGSTNNNEKFKSKATLTVDKSSSTAYMQLSSLTSEDSAVYYCTRWAMDYWGQGTSVTASS VL: DVVMTQTPLSLPVSLGDLASISCRSSQSLVHSNGNTYLHWYLQKPGQSPKLLIFKVSNRFSGVPDRFSGSGSGTDFTLKISRVEAEDLGVYFCSQSTHVPWTFGGGTKLEIKR",binds,binds
"4E4 (antibody, V domains shown, Entries as printed include a leader and part of the constant region) VH: QVQLQQPGAELVKPGASVKLSCKASGYTFTSYWMHWVKQRPGQGLEWIGMIHPNSGSTNYNEKFKNKATLTVDKSSSTAYMQLSSLTSEDSAVYYCAPRMFDDYDDYWGQGTTLTVSS VL: QIVLTQSPAIMSASLGERVTMTCTASSSVSSSYLHWYQQKPGSSPKLWIYSTSNLASGVPVRFSGSGSGTSYSLTISRMEAEDAATYYCHHYHRSPYTFGGGTKLEIKR",binds,binds
"1D7 (antibody, V domains shown, Entries as printed include a leader and part of the constant region) VH: EVQLQQSGPELVKPGASVKISCKASGYTFTDYYMNWVKQSHGKSLEWIGDINPNNGGTTYNQKFKGKATLTVDKSSSTAYMELRSLTSEDSAVYYCARWGIFDRFTYWGQGTVVTVSA VL: DIKMTQSPSSMYASRGERVTITCKASQDINSFLSWFQQKPGKSPKTLIYRANRLVDGVPSRFSGSGSGQDYSLTISSLEYEDMGIYYCLQYDEFPLTFGAGTKLELKR",binds,binds

# Second part, the binder after the results:
binding result [1],binding result [2],Binder
binds,binds,"5B4 (antibody, V domains shown, Its printed constant part differs from that of the other IgG1 entries; Entries as printed include a leader and part of the constant region) VH: QVQLQQPGAELVKPGASVKLSCKASDYTFTNYWMHWVKQRPGRGLEWIGRIDPSSGGAKYNEKFKSKATLTVDKPSSTAYMEFSSLTSEDSAVYYCVRSRYDYDGWFAYWGLGTLVTVSA VL: DIVMTQAAPSVPVTPGESVSISCRSSKSLLHSNGNTYLYWFLQRPGQSPQLLIYRMSNLASGVPDRFSGSGSGTAFTLRISRVEAEDVGVYYCMQHLEYPFTFGGGTKLEIKR"
binds,binds,"anti-TSG-6 antibody of SEQ ID NO: 1 and SEQ ID NO: 2 (first entry of Table 1, clone name not printed) (antibody, IgG1, V domains shown) VH: QVRLQQSGAELAKPGASVKLSCKASGYTFTSYWMHWVKQRPGQGLEWIGYIIPSSGYTKNKQNFKDKATLTADKSSSTAYMQLSNLTYEDSAVYSCARSDGSYPYYFDYWGQGTTLTVSS VL: ENVLTQSPAIMSASPGEKVTMTCSASSSVSYMHWYQQKSSTSPKLWIYDTSKLASGVPGRFSGSGSGNSYSLTISSMEAEDVATYYCFQGSGYPLTFGSGTKLEIKR"
binds,binds,"5A5 (antibody, V domains shown, Entries as printed include a leader and part of the constant region) VH: QVQLQQSGAELAKPGASVRLSCQASGYTFTTYWMHWVKQRPRQGLEWIGYIIPSSGYSKCHQKFKDKATLTADKSSNTASMQLSSLTYEDSAVYYCARSTSGYPYYFDYWGQGTTLTVSS VL: ENVLTQSPAIMSASPGEKVTMTCSATSSVSYMHWYQQKSSTSPKLWIYDTSKLASGVPGRFSGSGSGNSYSLTISSMEAEDVATYYCFQGSWYPLTFGAGTKLELKR"
binds,binds,"1A9 (antibody, V domains shown, Entries as printed include a leader and part of the constant region) VH: EVQLQQSGPELVKPGASVKISCKASGYTFTDYYMNWVKQSHEKSLEWIGDINPNNGGTSYNQKFMGKATLTVDKSSRTAYMELRSLTSEDSTVYYCARWGIYDRFTYWGQGTLVSVSA VL: DIKMTQSPSSMYASLGERVTIACKASQDINSFLSWFQQKPGKSPKTLIYRANRLVDGVPSRFSGSGSGQDYSLTISSLEYEDMGIYYCLQYDEFPLTFGAGTKLELKR"
